Source: article PMC9177701, “Taf2 mediates DNA binding of Taf14” (Nature Communications, 2022)
Each block holds one molecule with its values, some of them ahead of it. Ends that are not written are not given here. * marks the point of attachment. Crotonyl(E) = C/C=C/C(=O)*

Columns and labels:
[1] = molecular target: His-Taf14ET (S. cerevisiae) (UniProt P35189); experiment: MST; His-tagged Taf14 protein labeled with RED-tris-NTA kept at 20 nM, unlabeled peptide added stepwise; 20 mM Tris-HCl pH 7.5, 150 mM NaCl, 0–0.2 mM TCEP; Monolith NT.115; n = 2 or 3
[2] = test system: Taf14dYEATS (Saccharomyces cerevisiae); experiment: EMSA; conditions: EMSA: 20-25 mM Tris-HCl pH 7.5, 100-150 mM NaCl, 0.2 mM EDTA (+20% glycerol for NCP), 4 °C 10 min, 0.25 pmol/lane; NMR: 50 mM Tris pH 6.6-7.5, 150 mM NaCl or …
[3] = test system: Taf14dET (Saccharomyces cerevisiae); experiment: EMSA; conditions: EMSA: 20-25 mM Tris-HCl pH 7.5, 100-150 mM NaCl, 0.2 mM EDTA (+20% glycerol for NCP), 4 °C 10 min, 0.25 pmol/lane; NMR: 50 mM Tris pH 6.6-7.5, 150 mM NaCl or …
[4] = molecular target: FAM-labeled Taf2CT peptide (S. cerevisiae) (UniProt P23255); experiment: MST; FAM-labeled Taf2CT peptide kept at 20 nM, Taf14ET varied; 20 mM Tris-HCl pH 7.5, 150 mM NaCl, 0–0.2 mM TCEP; Monolith NT.115; n = 3
Sequence of FAM-labeled Taf2CT peptide (S. cerevisiae) (P23255 whole entry, looked up, the tested form may be a part): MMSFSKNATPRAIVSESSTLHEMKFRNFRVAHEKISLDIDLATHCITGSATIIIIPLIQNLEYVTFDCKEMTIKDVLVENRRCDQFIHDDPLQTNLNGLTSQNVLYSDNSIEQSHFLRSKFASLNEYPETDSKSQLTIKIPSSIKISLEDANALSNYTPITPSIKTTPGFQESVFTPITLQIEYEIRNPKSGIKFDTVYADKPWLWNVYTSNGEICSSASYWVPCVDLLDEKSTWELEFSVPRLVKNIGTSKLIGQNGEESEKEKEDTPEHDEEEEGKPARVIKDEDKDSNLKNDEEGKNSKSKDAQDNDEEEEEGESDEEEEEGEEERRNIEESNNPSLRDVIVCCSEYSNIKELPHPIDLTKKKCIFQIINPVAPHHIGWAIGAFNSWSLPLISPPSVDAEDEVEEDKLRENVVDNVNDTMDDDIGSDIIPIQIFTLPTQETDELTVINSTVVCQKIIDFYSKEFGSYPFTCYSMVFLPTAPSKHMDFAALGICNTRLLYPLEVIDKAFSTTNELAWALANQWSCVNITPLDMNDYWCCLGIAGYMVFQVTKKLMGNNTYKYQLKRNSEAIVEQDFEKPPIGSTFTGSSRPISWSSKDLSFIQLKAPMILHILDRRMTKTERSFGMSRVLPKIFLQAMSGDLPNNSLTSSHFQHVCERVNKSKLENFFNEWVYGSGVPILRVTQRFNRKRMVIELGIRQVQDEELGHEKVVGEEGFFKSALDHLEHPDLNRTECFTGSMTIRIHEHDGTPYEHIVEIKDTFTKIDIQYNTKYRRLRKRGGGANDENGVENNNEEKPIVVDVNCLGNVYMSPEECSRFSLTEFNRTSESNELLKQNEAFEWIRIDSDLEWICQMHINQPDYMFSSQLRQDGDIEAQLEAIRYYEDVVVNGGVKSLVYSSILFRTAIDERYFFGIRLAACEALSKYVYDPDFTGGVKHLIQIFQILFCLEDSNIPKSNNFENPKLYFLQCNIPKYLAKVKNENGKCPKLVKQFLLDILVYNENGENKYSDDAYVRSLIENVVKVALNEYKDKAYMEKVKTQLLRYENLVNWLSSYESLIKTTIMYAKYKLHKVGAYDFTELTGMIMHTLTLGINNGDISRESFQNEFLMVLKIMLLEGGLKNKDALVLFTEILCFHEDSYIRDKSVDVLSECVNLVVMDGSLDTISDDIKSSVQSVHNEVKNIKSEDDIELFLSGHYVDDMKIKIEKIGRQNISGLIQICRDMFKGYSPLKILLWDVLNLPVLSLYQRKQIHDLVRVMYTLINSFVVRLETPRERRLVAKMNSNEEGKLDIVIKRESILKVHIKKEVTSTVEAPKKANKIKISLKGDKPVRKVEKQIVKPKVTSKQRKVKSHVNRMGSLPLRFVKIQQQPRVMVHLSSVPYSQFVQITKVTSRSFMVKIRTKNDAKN

[5] = molecular target: T1, Taf14FL (full-length Taf14, aa 1–244) (S. cerevisiae, UniProt P35189 1-244); experiment: NMR titration; 1H,15N HSQC of 0.1–0.3 mM uniformly 15N-labeled Taf14 protein, unlabeled peptide added; 298 K; 50 mM Tris-HCl pH 6.6–7.5, 150 mM NaCl, 0–5 mM DTT or 0.2 mM TCEP, or 1x PBS pH 6.6–7.5; conditions: both partners purified
T1 construct: Taf14 (transcription initiation factor subunit 14), S. cerevisiae, aa 1–244, a 244-residue protein; In the EMSAs (functional rows) GST-Taf14 or Taf14 proteins were used; source: E. coli Rosetta-2 (DE3) pLysS, purified (SEC for cross-linking; 15N-labeled for NMR)
T1 sequence (looked up): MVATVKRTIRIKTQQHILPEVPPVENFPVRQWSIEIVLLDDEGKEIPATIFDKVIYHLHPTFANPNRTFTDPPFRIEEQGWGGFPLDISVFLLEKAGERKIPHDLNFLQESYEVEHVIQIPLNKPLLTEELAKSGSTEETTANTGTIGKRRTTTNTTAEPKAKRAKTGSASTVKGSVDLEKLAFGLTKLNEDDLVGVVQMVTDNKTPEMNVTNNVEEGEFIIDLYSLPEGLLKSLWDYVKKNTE

[6] = molecular target: T2, Taf14_(YEATS) (YEATS domain of Taf14, aa 1–137) (S. cerevisiae, UniProt P35189 1-137, uniformly 15N-labeled); experiment: as above; conditions: both partners purified
T2 construct: Taf14, S. cerevisiae, YEATS domain, aa 1–137; source: E. coli Rosetta-2 (DE3) pLysS, minimal media with 15NH4Cl, purified
T2 sequence (looked up): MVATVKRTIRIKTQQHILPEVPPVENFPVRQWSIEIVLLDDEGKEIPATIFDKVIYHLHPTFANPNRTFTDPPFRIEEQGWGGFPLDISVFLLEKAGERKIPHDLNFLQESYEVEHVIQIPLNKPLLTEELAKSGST

His-Taf14_(YEATS) = molecular target: T3, His-Taf14_(YEATS) (S. cerevisiae, UniProt P35189 1-137); experiment: MST; His-tagged Taf14 protein labeled with RED-tris-NTA kept at 20 nM, unlabeled peptide added stepwise; 20 mM Tris-HCl pH 7.5, 150 mM NaCl, 0–0.2 mM TCEP; Monolith NT.115; n = 2 or 3; conditions: both partners purified
T3 construct: Taf14, S. cerevisiae, YEATS domain, aa 1–137; Labelled on the His tag with the His-Tag Labeling Kit RED-tris-NTA (2nd Generation) for MST; source: E. coli Rosetta-2 (DE3) pLysS, purified (Ni-NTA, SEC)
T3 sequence (looked up): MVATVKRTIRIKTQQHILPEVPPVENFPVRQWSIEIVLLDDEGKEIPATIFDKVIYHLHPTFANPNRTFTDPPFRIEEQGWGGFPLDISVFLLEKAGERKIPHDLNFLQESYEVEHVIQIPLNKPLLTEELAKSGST

His-Taf14FL = molecular target: T4, His-Taf14FL (S. cerevisiae, UniProt P35189 1-244); experiment: as above; conditions: both partners purified
T4 construct: Taf14, S. cerevisiae, aa 1–244; Labelled on the His tag with the His-Tag Labeling Kit RED-tris-NTA (2nd Generation) for MST; source: E. coli Rosetta-2 (DE3) pLysS, purified (Ni-NTA, SEC)
T4 sequence (looked up): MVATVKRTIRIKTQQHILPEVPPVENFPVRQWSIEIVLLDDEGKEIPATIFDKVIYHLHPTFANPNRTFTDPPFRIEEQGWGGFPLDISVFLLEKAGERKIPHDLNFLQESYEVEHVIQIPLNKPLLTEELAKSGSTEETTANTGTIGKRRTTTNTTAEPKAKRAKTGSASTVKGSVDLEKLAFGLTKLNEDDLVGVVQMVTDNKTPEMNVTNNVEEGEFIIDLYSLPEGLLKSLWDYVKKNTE

Taf14FL = Taf14FL (Saccharomyces cerevisiae, UniProt P35189 1-244); experiment: EMSA; EMSA: 20-25 mM Tris-HCl pH 7.5, 100-150 mM NaCl, 0.2 mM EDTA (+20% glycerol for NCP), 4 °C 10 min, 0.25 pmol/lane; NMR: 50 mM Tris pH 6.6-7.5, 150 mM NaCl or 1x PBS, 298 K; conditions: protein: recombinant; 15N-labelled for NMR; 5' overhang 1 nt (extra T on strand 2 as printed)
Taf14FL;Taf2CT = Taf14FL;Taf2CT (Saccharomyces cerevisiae;Saccharomyces …, UniProt P35189;P23255 1-244;1392-1402, |); experiment: EMSA; Taf14:Taf2CT 1:10; augmented vs Taf14FL alone; EMSA: 20-25 mM Tris-HCl pH 7.5, 100-150 mM NaCl, 0.2 mM EDTA (+20% glycerol for NCP), 4 °C 10 min, 0.25 pmol/lane; NMR: 50 mM Tris pH 6.6-7.5, 150 mM NaCl or 1x PBS, 298 K; conditions: 15N-labelled for NMR;; 5' overhang 1 nt (extra T on strand 2 as printed)

Molecule: 601 Widom DNA 147 bp
binding signal (fold tighter than Taf14FL) [2]: > 6 | binding signal (fold tighter than Taf14FL) [3]: > 6

Molecule: Taf14ET (ET domain of Taf14, aa 168–243) (from UniProt P35189 168-243) (domain or fragment)
Kd [4]: 1.6 µM

B3: Taf2CT peptide (aa 1392–1402 of Taf2) (peptide, UniProt P23255 1392-1402, looked up)
peptide: SRSFMVKIRTK
notes: Taf2, subunit of yeast TFIID, C-terminal hxhKh motif-containing tail, aa 1392–1402; also called Taf2 peptide; C-terminal tail of Taf2; source: synthetic peptide (Synpeptide)
Kd (His-Taf14_(YEATS)): 6 µM | Kd (His-Taf14FL): 0.7 µM

B4: 37 bp non-specific dsDNA (dsDNA)
DNA 1: CGTGTCAGATATATACATCCGATATCAGATCTCGTCA
DNA 2: TTGACGAGATCTGATATCGGATGTATATATCTGACACG
binding result (Taf14FL): binds | binding result (Taf14FL;Taf2CT): binds

The remaining lines, values ahead:

Kd [1]: 640 µM
Molecule: Taf14_(Linker) peptide (aa 145–169 of Taf14) (from UniProt P35189 145-169)

binding result [5]: binds
B1: H3K9cr_(1-19) peptide (peptide, UniProt P61830 2-20, looked up)
peptide: ARTKQTARKSTGGKAPRKQ
modifications: crotonyl-lysine at 9
notes: the NMR methods list only H3K9cr_(5-13)

binding result [6]: binds
B2: H3K9cr_(5-13) peptide (residues 5–13 of H3) (peptide, UniProt P61830 6-14, looked up)
peptide: QTARK(Crotonyl(E))STGG
notes: also called H3K9cr peptide; source: synthetic peptide (Synpeptide)
